The record followed here is publication PMC7617285, “Dehydrogenase versus oxidase function: the interplay between substrate binding and flavin microenvironment” (ACS catalysis, 2025).

Holding throughout (assay): purified protein
Substrate in data set [1]: COc1cc(CO)ccc1O
The data set is classed as biochemical, Hyphococcus luteus. The note with it: 100 μM DCPIP as acceptor, 25 °C, 50 mM potassium phosphate pH 7.5, 150 mM NaCl.

Substrate in data set [2]: C=CCc1ccc(O)c(OC)c1
In kind it is biochemical, Hyphococcus luteus. The note with it: 100 μM DCPIP as acceptor, 25 °C, 50 mM potassium phosphate pH 7.5, 150 mM NaCl.

Substrate in data set [3]: OCc1ccc(O)cc1
The data set is classed as biochemical, Hyphococcus luteus. Particulars: 100 μM DCPIP as acceptor, 25 °C, 50 mM potassium phosphate pH 7.5, 150 mM NaCl.

Substrate in data set [4]: COCc1ccc(O)cc1
The data set is classed as biochemical, Hyphococcus luteus. The note with it: 100 μM DCPIP as acceptor, 25 °C, 50 mM potassium phosphate pH 7.5, 150 mM NaCl.

Substrate in data set [5]: COc1cc(CO)ccc1O
The data set is classed as biochemical, Rhodococcus jostii. Particulars: molecular oxygen as acceptor, 25 °C, 50 mM potassium phosphate pH 7.5, 150 mM NaCl.

Substitutions are numbered along the chain they refer to. Numbers in names are those of the source.

B1: VAD (vanillyl-alcohol dehydrogenase from Marinicaulis flavus) (Hyphococcus luteus; P151I) (protein)
chain: MAAPLPEGVSAEAMSSALDRFARIVGADWVFTEDKITPYEDPYTISNDETEHRPYAAVAPASTEEVQEIVRVANEFGVPLWPVSRGKNFAYGGAAPVMSGTVVLDMNRMNRILEVNEEFGYALVEPGVSYFELYDYIQEKGLKLWIDVPDIGWGSVVGNALDHGIGYTPYGDHFAMQCGMEVVLPNGEVVRTGMGAMPGNNTWQLFKYGYGPYVDGIFSQSNFGVVTKMGIWLMPEPAGYRPYLITFENEDDIETVTERLRPLKVAGVIQNGATVRSLVLDAAITRTKSQYYDGDGPIPPSVAKTMMADLDLGMWNFCGALYGPPPVMDTLWTAIRDSFADIPGVKFYFPEDRRHKVDLLLHRAETMKGVPKLTEFNFLNWDGGGGHVGFSPVSPITGKDAIKQYNMVSSRVREYGFDYMGLLAIGWRDLHHVTVIVYDKTDPDERKKLDELFNILVDEAAAEGYGEYRTHIRYMDRIAKTYSWNDNALWKMHETIKDALDPNGILAPGKSGIWGKNRRKA
notes: SUMO tag cleaved for crystals; covalent FAD on H387; dimer
Take B1: in “purified protein [1]”, the Michaelis-Menten constant (Km) was found to be 37.5 ± 9.2 µM, the kcat was 0.73 ± 0.04 s⁻¹ and the specificity constant (kcat/Km) was found to be 19000 M⁻¹ s⁻¹.

B2: VAD (vanillyl-alcohol dehydrogenase from Marinicaulis flavus) (Hyphococcus luteus) (protein)
chain: B1 chain with I151P
notes: as for B1
Regarding B2, the Km in “purified protein [2]” is 51.2 ± 13.1 µM; in “purified protein [3]”, 208 ± 9 µM; in the data set “purified protein [1]”, 74.2 ± 12.4 µM; in the data set “purified protein [4]”, 330 ± 40 µM. For the same protein, the kcat in the data set “purified protein [2]” came out at 0.81 ± 0.06 s⁻¹; in the data set “purified protein [3]”, 0.25 ± 0.01 s⁻¹; in the data set “purified protein [1]” it was 0.44 ± 0.02 s⁻¹; in the data set “purified protein [4]”, 0.06 ± 0.003 s⁻¹. For the same protein, the kcat/Km in “purified protein [2]” is 16000 M⁻¹ s⁻¹; in the data set “purified protein [3]”, 1200 M⁻¹ s⁻¹; in “purified protein [1]”, 6000 M⁻¹ s⁻¹; in the data set “purified protein [4]”, 200 M⁻¹ s⁻¹.

B3: VAD (vanillyl-alcohol dehydrogenase from Marinicaulis flavus) (Hyphococcus luteus; P151N) (protein)
chain: B1 chain with I151N
notes: as for B1
For B3, in the data set “purified protein [1]”, the Michaelis-Menten constant (Km) was 151 ± 24 µM, the kcat is 0.14 ± 0.07 s⁻¹ and the catalytic efficiency (kcat/Km) was found to be 1000 M⁻¹ s⁻¹.

B4: VAD (vanillyl-alcohol dehydrogenase from Marinicaulis flavus) (Hyphococcus luteus; P151L) (protein)
chain: B1 chain with I151L
notes: as for B1
For the protein B4, in “purified protein [1]”, the Michaelis constant (Km) stood at 72.4 ± 6.3 µM, the kcat came to 0.76 ± 0.02 s⁻¹ and the kcat/Km was 10500 M⁻¹ s⁻¹.

B5: VAD (vanillyl-alcohol dehydrogenase from Marinicaulis flavus) (Hyphococcus luteus; P151G) (protein)
chain: B1 chain with I151G
notes: as for B1
For the protein B5, in “purified protein [1]”, the Michaelis-Menten constant (Km) amounted to 316.5 ± 39.7 µM, the kcat turned out to be 1.49 ± 0.07 s⁻¹ and the kcat/Km was found to be 5000 M⁻¹ s⁻¹.

B6: VAD (vanillyl-alcohol dehydrogenase from Marinicaulis flavus) (Hyphococcus luteus; P151T) (protein)
chain: B1 chain with I151T
notes: as for B1
B6: in “purified protein [1]”, the Km came to 17.6 ± 5.5 µM, the kcat turned out to be 0.48 ± 0.03 s⁻¹ and the kcat/Km stood at 27000 M⁻¹ s⁻¹.

B7: VAD (vanillyl-alcohol dehydrogenase from Marinicaulis flavus) (Hyphococcus luteus; P151V) (protein)
chain: B1 chain with I151V
notes: as for B1
On to B7, for which, in the data set “purified protein [1]”, the Km is 42.2 ± 6.6 µM, the kcat came to 0.90 ± 0.04 s⁻¹ and the specificity constant (kcat/Km) was 21000 M⁻¹ s⁻¹.

B8: EUGO (eugenol oxidase from Rhodococcus jostii RHA1) (Rhodococcus jostii RHA1) (protein)
chain: MTRTLPPGVSDERFDAALQRFRDVVGDKWVLSTADELEAFRDPYPVGAAEANLPSAVVSPESTEQVQDIVRIANEYGIPLSPVSTGKNNGYGGAAPRLSGSVIVKTGERMNRILEVNEKYGYALLEPGVTYFDLYEYLQSHDSGLMLDCPDLGWGSVVGNTLDRGVGYTPYGDHFMWQTGLEVVLPQGEVMRTGMGALPGSDAWQLFPYGFGPFPDGMFTQSNLGIVTKMGIALMQRPPASQSFLITFDKEEDLEQIVDIMLPLRINMAPLQNVPVLRNIFMDAAAVSKRTEWFDGDGPMPAEAIERMKKDLDLGFWNFYGTLYGPPPLIEMYYGMIKEAFGKIPGARFFTHEERDDRGGHVLQDRHKINNGIPSLDELQLLDWVPNGGHIGFSPVSAPDGREAMKQFEMVRNRANEYNKDYAAQFIIGLREMHHVCLFIYDTAIPEAREEILQMTKVLVREAAEAGYGEYRTHNALMDDVMATFNWGDGALLKFHEKIKDALDPNGIIAPGKSGIWSQRFRGQNL
notes: covalent FAD on H390
As for B8, in “purified protein [5]”, the Michaelis-Menten constant (Km) turned out to be 204.4 ± 28.9 µM, the turnover number (kcat) came to 9.68 ± 0.43 s⁻¹ and the catalytic efficiency (kcat/Km) was determined as 47400 M⁻¹ s⁻¹.
